Laboratory results published in PMC9348755 (Science (New York, N.y.), 2022).

The binders below were run against prefusion PentaPro (F817) SARS-CoV-2 S2 (SARS-CoV-2 (Wuhan-Hu-1 assumed), UniProt P0DTC2, stabilised) (assay: ELISA). Conditions: both partners purified.

| Binder | binding result |
| --- | --- |
| C77G12 mAb (antibody, V domains shown, also called Group 3 mAb; fusion peptide-specific mAb) VH: EVQLVESGGGVVQPGRSLRISCAVSGFTFGSYAMHWVRQAPGKGLEWVGVMSSDGHNEYYADSVKGRFTISRDNSRNKLYLEMNNLRVDDTAVFYCARGSDYVDDSPPLHYWGQGTLVTVSS VL: DIQLTQSPSSLSASIGDRVTITCRASQDIANKLAWFQQAPGKAPKSLIYAASRLQSGVPSQFSGSGSGTDFTLTIESLQAGDFATYFCQQYDSFPFTFGPGTKVDVK | binds |
| VN01H1 mAb (antibody, V domains shown, also called Group 3 mAb; fusion peptide-specific mAb) VH: EVQLVESGGGLVLPGGSLRLSCSASGFTFSDFSMHWVRQSPGKGLEYVSAITSSGSSTYYPDSVKGRFTISRDNSKNTLYLQMGSLRVEDTAVYWCVKNSDVFRFPHLYFDVWGRGTLVTVSS VL: not shown | binds |
| C13B8 mAb (antibody, V domains shown, also called Group 3 mAb; fusion peptide-specific mAb) VH: QVQLQESGPGLVQPSQTLTLTCTVSGDSISNEDYHWTWIRQHPGKGLEWMGYLQYSGNTNYNPSLKSRMTISVDTSKNQFSLRLNSVTAADTAVYFCATSIVLTGMSNKIQPFDYWGQGTLVTVSS VL: SYELTQPPSVSVSPGQMARITCSGEALPKKYAYWYQQKGGQFPVLVIYKDTERPSGIPERFSGSSSGTIVTLTISGVQPEDEADYYCLSADTSGTWVFGGGTKLTVL | binds |
| C13C9 mAb (antibody, V domains shown, also called Group 3 mAb; fusion peptide-specific mAb) VH: EVQLVQSGPEVKKPGTSARVSCKASGFTSKNTALQWVRQARGQPLEWMGWIDISNYITNYAQKFRGRLTITWDLSASMAYMELSSLRSEDTAVYYCAAVGKDDDVLTGGNKYFDHWGQGTLVTVSS VL: SYELTQPPSVSVSPGQTARITCSGDALPKKYAYWYQQKSGQAPVLVIHEDDKRPSGIPGRFSASSSGTTATLTISGAQVEDEADYYCYSTDTNDNHAFGSGTKLTVL | binds |
| VP12E7 mAb (antibody, V domains shown, also called Group 3 mAb; fusion peptide-specific mAb) VH: QVQLVQSGGGVVQPGESLRLSCSGSGFTFNNYIMHWVRQAPGQGLDYVSGIGSDGRNTNYGDSVKGRFTISRDNSKDTLYLQMTSLRAEDTAFYYCVKGLDVLRFLDLSTPSGERLDAFDIWGQGTMVTVSS VL: DIVMTQSPSFLSASVGDRVTITCRASQGISNYLAWYQQKPGKAPHLLIYAASTLQSGVPSRFSGSGSGTEFTLTISSLQPEDFATYYCQQLNSYPLFTFGPGTKVDIE | binds |
